This data set concerns the molecule itself. Description: SDS-PAGE of bicelle-reconstituted protein; protein reconstituted in DMPC-DH6PC bicelles (q = 0.5; DMPC:DH6PC approximately 1:2), 20 mM sodium phosphate pH 6.8; mixed with LDS loading buffer without heating or reducing agents; NuPAGE 12% gel, 200 V on ice.

From paper PMC7591462, “The Diversity and Similarity of Transmembrane Trimerization of TNF Receptors” (Frontiers in Cell and Developmental Biology, 2020) come the findings set out here.

B1: human TNFR1 TM fragment, residue 209-238 (TNFR1 TMH), C223A M233A (domain or fragment, UniProt P19438 209-238, looked up)
chain: GTTVLLPLVIFFGLALLSLLFIGLAYRYQR
notes: TNFR1 (tumor necrosis factor receptor 1), human, isoform 1, transmembrane fragment residues 209-238 with C223A and M233A; Released from His9-TrpLE by cyanogen bromide at a methionine added between TrpLE and the fragment; Isotope-labelled (15N, 13C, 2H) for NMR; also called TNFR TMH; TMH of TNFR1; source: reconstituted in DMPC-DH6PC bicelles; not shown: His9, N-terminal, cleaved; TrpLE, …
For orientation: stoichiometry N means the number of molecules, sites or subunits per partner or assembly. As to B1, the “stoichiometry N” value is 3.
